Target: protein receptor on Chang C cells (human)
Experiment: 125I-labeled virions on Chang C cells pretreated with 10 µg/ml trypsin, subtilisin, proteinase K or bromelain

## Wild-type Ad37 (adenovirus type 37) particles
  percent inhibition of specific binding after protease pretreatment of the cells: 50%

Reference: patent US20020193327A1
